Experimental data: patent US20120195831A1 (published 2012)
Positions count from the first letter of the chain named. Each block holds one binder with its values, some of them ahead of it.

What was measured:
[1] = molecular target: T1, Her2 on CHO cells (CHO-Her2) (UniProt P04626 23-1255, limits assumed); experiment: FACS on CHO-Her2 cells, purified IgG, R-PE anti-mouse IgG
T1 construct: whole, on cells
Description: (§1) CHO-Her2, CHO-Her4, CHO-EGFR cells were harvested and resuspended in PBS, 2% FBS at a concentration of approximately 1×10⁶/ml. Cells were stained with purified IgGs at 4° C. for 40 min. Cells were washed with 4 mL PBS, 2% FBS, then centrifuged at 1200 rpm for 10 minutes. Supernatant was removed. Cells were stained with R-PE conjugated anti-mouse IgG at 4° C. for 30 min. Cells were washed with 4 mL PBS, 2% FBS, then centrifuged at 1200 rpm for 10 minutes. Supernatant was removed and cell pellets were fixed in 1% formaldehyde. Cells were analyzed on a FACS Calibur (BD Biosciences) by collecting 20,000 events from gate 1.

[2] = molecular target: T2, EGFR on CHO cells (CHO-EGFR) (UniProt P00533 25-1210, limits assumed); experiment: FACS on CHO-EGFR cells, purified IgG, R-PE anti-mouse IgG
T2 construct: whole, on cells
Description: as §1

[3] = molecular target: T3, Her4 on CHO cells (CHO-Her4) (UniProt Q15303 26-1308, limits assumed); experiment: FACS on CHO-Her4 cells, purified IgG, R-PE anti-mouse IgG
T3 construct: whole, on cells
T3 sequence (Q15303 26-1308 limits assumed): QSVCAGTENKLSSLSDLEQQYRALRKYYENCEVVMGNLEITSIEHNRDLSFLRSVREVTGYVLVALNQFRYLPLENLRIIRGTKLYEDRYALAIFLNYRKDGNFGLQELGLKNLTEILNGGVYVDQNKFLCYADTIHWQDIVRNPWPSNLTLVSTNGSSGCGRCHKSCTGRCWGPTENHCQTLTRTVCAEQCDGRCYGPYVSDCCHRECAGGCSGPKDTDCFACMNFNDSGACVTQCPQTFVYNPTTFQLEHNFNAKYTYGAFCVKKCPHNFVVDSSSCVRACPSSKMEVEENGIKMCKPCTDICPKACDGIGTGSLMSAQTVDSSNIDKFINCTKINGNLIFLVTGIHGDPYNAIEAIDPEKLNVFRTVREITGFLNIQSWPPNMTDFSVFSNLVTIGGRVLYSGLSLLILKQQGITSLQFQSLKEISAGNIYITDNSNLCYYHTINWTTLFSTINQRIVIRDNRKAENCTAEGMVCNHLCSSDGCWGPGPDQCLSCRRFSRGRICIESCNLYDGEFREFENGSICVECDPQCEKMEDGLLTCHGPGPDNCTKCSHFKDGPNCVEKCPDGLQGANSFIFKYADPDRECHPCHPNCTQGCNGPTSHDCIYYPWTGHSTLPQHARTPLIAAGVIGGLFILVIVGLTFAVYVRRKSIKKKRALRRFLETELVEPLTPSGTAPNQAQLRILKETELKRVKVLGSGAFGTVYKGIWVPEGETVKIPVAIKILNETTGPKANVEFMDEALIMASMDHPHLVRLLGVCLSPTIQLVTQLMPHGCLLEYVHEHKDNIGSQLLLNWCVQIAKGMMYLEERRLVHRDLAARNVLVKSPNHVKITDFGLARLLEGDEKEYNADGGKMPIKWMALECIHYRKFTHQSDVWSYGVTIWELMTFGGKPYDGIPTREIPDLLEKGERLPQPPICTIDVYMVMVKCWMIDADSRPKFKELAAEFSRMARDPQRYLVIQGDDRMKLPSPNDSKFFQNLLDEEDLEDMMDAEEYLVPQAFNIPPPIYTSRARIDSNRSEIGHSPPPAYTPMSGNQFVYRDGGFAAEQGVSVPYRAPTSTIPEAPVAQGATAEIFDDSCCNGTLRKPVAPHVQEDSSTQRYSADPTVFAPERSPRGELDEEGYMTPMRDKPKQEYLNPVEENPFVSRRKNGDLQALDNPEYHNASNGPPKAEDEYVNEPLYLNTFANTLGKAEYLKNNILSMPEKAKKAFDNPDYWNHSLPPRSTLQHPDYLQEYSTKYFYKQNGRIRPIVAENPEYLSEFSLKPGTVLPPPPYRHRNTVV
Description: as §1

[4] = molecular target: T4, human Her3 receptor on cells (T47D, MCF7) (human, UniProt P21860 20-1342); experiment: cell-based or functional assay
T4 sequence (P21860 20-1342 limits assumed, stated change not applied): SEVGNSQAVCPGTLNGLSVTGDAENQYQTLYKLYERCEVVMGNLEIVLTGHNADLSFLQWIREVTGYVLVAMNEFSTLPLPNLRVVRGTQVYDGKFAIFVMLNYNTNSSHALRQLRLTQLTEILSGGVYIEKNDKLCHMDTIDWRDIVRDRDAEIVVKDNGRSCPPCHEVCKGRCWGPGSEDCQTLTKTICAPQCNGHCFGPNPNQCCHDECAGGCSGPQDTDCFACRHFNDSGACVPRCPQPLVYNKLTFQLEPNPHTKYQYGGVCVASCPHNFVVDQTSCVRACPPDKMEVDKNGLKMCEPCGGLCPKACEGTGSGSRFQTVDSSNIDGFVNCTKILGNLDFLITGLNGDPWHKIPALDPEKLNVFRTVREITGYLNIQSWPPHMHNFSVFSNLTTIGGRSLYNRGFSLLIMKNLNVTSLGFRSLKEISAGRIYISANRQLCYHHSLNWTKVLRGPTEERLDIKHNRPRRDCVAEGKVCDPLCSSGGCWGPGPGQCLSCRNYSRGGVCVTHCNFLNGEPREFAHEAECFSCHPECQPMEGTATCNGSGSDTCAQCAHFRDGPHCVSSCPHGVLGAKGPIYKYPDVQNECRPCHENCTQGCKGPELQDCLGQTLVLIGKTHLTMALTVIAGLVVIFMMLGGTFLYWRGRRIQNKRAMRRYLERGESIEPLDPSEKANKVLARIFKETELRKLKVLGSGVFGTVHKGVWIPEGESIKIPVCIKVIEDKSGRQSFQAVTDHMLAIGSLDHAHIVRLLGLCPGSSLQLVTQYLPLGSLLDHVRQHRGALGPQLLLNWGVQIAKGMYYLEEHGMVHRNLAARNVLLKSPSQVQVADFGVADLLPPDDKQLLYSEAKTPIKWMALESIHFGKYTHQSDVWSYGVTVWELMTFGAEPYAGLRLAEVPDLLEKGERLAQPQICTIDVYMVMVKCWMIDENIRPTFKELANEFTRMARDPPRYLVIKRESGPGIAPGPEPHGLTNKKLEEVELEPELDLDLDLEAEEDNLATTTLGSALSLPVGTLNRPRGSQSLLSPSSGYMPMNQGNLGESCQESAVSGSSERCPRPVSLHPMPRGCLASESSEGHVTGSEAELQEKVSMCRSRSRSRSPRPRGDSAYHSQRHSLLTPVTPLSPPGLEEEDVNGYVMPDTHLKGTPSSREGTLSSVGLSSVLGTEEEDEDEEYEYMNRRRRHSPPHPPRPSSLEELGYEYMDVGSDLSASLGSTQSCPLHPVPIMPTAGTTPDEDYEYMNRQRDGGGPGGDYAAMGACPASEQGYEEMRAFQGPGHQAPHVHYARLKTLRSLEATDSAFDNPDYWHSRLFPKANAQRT

mouse HER3/ErbB3 = molecular target: T5, mouse HER3/ErbB3 (mouse, UniProt Q61526); experiment: FACS, purified IgG on CHO cells expressing mouse Her3, R-PE anti-mouse IgG
T5 construct: receptor expressed on CHO cells; also called mouse Her3 receptor on CHO cells
T5 sequence (Q61526 20-1339 limits assumed): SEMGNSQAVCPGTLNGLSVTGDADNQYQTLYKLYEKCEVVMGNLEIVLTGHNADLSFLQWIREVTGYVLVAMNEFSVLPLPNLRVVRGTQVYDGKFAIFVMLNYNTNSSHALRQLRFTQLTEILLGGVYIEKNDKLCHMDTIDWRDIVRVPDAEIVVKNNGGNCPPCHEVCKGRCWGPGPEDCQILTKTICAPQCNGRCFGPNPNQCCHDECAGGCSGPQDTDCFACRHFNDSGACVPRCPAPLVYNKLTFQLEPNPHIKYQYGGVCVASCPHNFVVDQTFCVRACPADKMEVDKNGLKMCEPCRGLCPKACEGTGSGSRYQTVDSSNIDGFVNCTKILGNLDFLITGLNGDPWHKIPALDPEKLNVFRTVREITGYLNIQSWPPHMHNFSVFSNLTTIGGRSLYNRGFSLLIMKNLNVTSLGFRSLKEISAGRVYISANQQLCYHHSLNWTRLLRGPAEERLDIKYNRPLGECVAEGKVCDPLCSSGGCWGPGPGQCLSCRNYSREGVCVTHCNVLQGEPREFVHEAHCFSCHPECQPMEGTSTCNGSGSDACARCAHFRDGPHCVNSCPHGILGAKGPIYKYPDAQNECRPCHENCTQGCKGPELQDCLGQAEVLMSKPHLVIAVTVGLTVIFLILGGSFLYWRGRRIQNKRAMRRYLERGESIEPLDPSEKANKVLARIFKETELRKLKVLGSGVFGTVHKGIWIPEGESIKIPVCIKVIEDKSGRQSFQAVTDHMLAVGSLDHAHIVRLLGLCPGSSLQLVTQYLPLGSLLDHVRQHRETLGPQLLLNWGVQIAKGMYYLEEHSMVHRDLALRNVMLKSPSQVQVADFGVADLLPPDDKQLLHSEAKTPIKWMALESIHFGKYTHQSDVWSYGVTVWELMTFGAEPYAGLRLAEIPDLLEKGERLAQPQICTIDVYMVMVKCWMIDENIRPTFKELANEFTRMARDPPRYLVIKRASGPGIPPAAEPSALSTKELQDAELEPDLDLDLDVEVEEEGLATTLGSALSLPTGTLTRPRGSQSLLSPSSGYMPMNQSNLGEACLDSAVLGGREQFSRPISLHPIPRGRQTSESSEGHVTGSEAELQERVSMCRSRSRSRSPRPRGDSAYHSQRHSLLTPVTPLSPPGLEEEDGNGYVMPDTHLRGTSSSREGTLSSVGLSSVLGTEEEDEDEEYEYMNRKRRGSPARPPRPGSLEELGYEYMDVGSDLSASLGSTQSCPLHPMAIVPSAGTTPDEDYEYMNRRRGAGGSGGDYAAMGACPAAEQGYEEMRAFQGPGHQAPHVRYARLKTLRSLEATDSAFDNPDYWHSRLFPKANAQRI
Description: as §1, with “CHO cell lines expressing human or mouse Her3 receptors were used to study species-cross reactivity. Cells” for “CHO-Her2, CHO-Her4, CHO-EGFR cells”

Her3/Avi/His10 receptor [5] = molecular target: T6, Her3/Avi/His10 receptor (Homo sapiens (Human), UniProt P21860 20-643, limits assumed); experiment: AlphaScreen competition; antibody titrated against 10 nM biotinylated NRG-1 beta and 10 nM Her3/Avi/His10; n = 3
T6 construct: Soluble tagged receptor of the AlphaScreen assay; The antibodies are called anti-hHer3 there; not shown: Avi tag; His10 tag (ten histidines by its name)
T6 sequence (P21860 20-643 limits assumed): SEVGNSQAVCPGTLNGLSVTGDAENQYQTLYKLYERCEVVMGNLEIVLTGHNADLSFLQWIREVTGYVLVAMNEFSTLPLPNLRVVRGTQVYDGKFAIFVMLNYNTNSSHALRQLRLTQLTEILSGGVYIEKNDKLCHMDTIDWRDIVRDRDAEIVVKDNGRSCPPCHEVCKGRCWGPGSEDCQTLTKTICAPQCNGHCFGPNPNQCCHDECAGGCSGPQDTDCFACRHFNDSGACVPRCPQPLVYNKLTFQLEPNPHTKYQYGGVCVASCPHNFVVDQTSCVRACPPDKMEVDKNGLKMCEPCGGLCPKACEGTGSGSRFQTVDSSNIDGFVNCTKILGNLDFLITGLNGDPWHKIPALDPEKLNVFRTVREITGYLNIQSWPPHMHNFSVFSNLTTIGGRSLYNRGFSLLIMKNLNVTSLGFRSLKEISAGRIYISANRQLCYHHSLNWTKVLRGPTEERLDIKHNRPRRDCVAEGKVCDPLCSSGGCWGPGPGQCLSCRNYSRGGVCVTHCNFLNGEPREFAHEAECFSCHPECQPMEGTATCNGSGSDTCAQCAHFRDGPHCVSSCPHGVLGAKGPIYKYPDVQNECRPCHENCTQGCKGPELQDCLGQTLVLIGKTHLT
Description: (§2) SDI or Genovac purified anti-hHer3 Mabs were serially diluted two-fold into an assay buffer made from 25 mM Hepes, 100 mM NaCl, 0.5% BSA and 0.05% Tween20 in an opaque/white, half-well area plate (Costar). Mouse IgG1 antibody was used as a negative control (Southern Biotech; cat #010201). Biotinylated NRG-1 beta ligand and Her3/Avi/His₁₀ receptor were added sequentially at 10 nM concentration to the assay plate containing serially diluted antibodies. This mixture of receptor, ligand and the antibodies was incubated at room temperature with gentle shaking for 90 minutes. AlphaScreen Streptavidin Donor beads and His-Nickel chelate Acceptor beads were added into the assay at a final concentration of 20 μg/ml each. The light sensitive beads were handled under chromagreen filtered light. The assay plates were covered with foil and incubated at room temperature with gentle shaking for 1 hour. The plates were read in PE EnVision plate reader equipped with an Alpha module (dedicated laser for excitation and designed to measure the signal above the well). Table 7 listed IC₅₀ values in ligand blocking that were estimated using four parameter curve fitting with concentration titration graphs (FIGS. 7 A&B).

[6] = molecular target: T7, Recombinant Human Her3 (Her3/ErbB3 extracellular domain) (human, UniProt P21860 20-643); experiment: SPR (BIAcore), Mab captured by anti-IgG Fc on CM5 chip, recombinant human Her3 as analyte, 25 °C
T7 construct: Analyte of the BIAcore assay; also called Her3 ECD; human Her3/ErbB3 extracellular domain
T7 sequence (P21860 20-643 limits assumed): as above
Description: All experiments were performed at 25° C. at a flow rate of 40 μl/min. To prepare a BIAcore assay, an anti-human IgG-Fc antibody (50 μg/ml each in acetate buffer, pH 5.0) was immobilized onto a carboxymethyl dextran sensorchip (CM5) using amine coupling procedures as described by the manufacturer. 10000 resonance units (RU) of anti-mouse IgG Fc antibodies were linked respectively onto Flowcells (FC) 1 and 2. Purified Mabs to be tested were diluted at a concentration of 5 μg/ml in 0.5% P20, HBS-EP buffer and injected on FC2 to reach 500 to 1000 RU. FC1 was used as the reference cell. Specific signals correspond to the difference of signals obtained on FC2 versus FC1. The analyte (Recombinant Human Her3, apparent molecular weight 97 kDa) was injected during 90 sec at 5 different concentrations (100, 50, 25, 12.5 and 6.25 nM) in 0.5% P20, HBS-EP buffer. These concentrations were prepared from stock solution in 0.5% P20, HBS-EP. The dissociation phase of the analyte was monitored over a 10 minutes period. Running buffer was also injected under the same conditions as a double reference. After each cycle (antibody+Her3 injection), both Flowcells were regenerated by injecting 20 to 45 μl of Glycine-HCl buffer pH 1.5. This regeneration is sufficient to eliminate all Mabs and Mabs/Her3 complexes captured on the sensorchip. Table 1 listed binding KD for Her3 binding monoclonal antibodies.

Her3/Avi/His10 receptor [7] = molecular target: T6, Her3/Avi/His10 receptor; experiment: AlphaScreen ligand blocking: antibody titrated against 10 nM biotinylated NRG-1 beta and 10 nM Her3/Avi/His10, % signal
Description: as §2

[8] = molecular target: T4, human Her3 receptor on cells (T47D, …); experiment: cell-based or functional assay; remark: listed apart in the source
[9] = molecular target: T4, human Her3 receptor on cells (T47D, …); experiment: cell-based or functional assay; remark: listed apart in the source
[10] = molecular target: T4, human Her3 receptor on cells (T47D, …); experiment: cell-based or functional assay; remark: listed apart in the source

B1: 588F7 (antibody, V domains shown)
VH: QVQLQQPGSVLVRPGASVKLSCKASGYTFTNSWILWAKRRPGQGLEWIGEIHPNSGNTNYNEKFKGQATLTVDTSSTTAYVDLSRLTSEDSAVYYCARYEGHWGQGTLVTVSA
VL: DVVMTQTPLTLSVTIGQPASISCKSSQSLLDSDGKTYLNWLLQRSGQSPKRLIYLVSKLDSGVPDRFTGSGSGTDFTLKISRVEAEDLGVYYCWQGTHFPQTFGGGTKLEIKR
notes: Purified mouse IgG from a hybridoma; also called 588F7-HC; 588F7-LC
binding result [1]: no binding
binding result [2]: no binding
binding result [3]: no binding

B2: PO-1G2-B6 (antibody, V domains shown)
VH: EVQLQQSGPELVKPGASVKISCKASGYSFTGYHIHWMKQSHVESLEWIGRINPYSGVTDYNQNFKDKANLTVDQSSSTAYMELHSLTSEDSAFYYCARTDYYGPWFAYWGQGTLVTVSA
VL: DIQMTQSPLSLPVSLGDQASISCRSSPSLVHSNGNTYLHWYLQKPGQSPKLLIYTVSNRFSGVPDRFSGSGSGTDFTLKINRVEAEDLGVYFCSQTTHVPWTFGGGTKLEIKR
notes: Purified mouse IgG from a hybridoma; also called PO-1G2-B6-HC; PO-1G2-B6-LC
binding result [1]: no binding
binding result [2]: no binding
% Receptor Internalization (T47D cells, FACS) [4]: 13%
binding result (mouse HER3/ErbB3): binds
IC50 (Her3/Avi/His10 receptor [5]): 72.8 nM
Kd [6]: 5.5 nM
IC50 (Her3/Avi/His10 receptor [7]): 42.6 nM
binding result [3]: no binding
IC50 of inhibition of pHer3 (MCF7 cells stimulated with rhNRG1-β1, ELISA) [8]: 2.91 nM
IC50 of pERK inhibition (MCF7 cells stimulated with rhNRG1-β1, MSD) [9]: 290 nM

B4: 588F42 (antibody, V domains shown)
VH: EVQLQQSGPELVKPGASVKMSCKASGYTFTSYVMHWVKQKPGQGLEWLGYINPYNDGTKYNEKFKGKATLTSDKSSSTAYMELISLTSEDSAVYYCAREASYGNPFAYWGQGTLVTVSA
VL: DIVMTQSPASLSASVGETVTITCRTSENIYSYLAWFQQKQGNSPQLLVYNTKTLAEGVPSRFSGSGSGTQFSLKINSLQPEDFGNYYCQHHYDTPWTFGGGTKLEIK
notes: Purified mouse IgG from a hybridoma; also called 588F42-HC; 588F42-LC
binding result [1]: no binding
binding result [2]: no binding
% Receptor Internalization (T47D cells, FACS) [4]: 57%
IC50 (Her3/Avi/His10 receptor [5]): 4.6 nM
Kd [6]: 3.8 nM
IC50 (Her3/Avi/His10 receptor [7]): 3.03 nM
IC50 of pAKT inhibition (MCF7 cells stimulated with rhNRG1-β1, ELISA) [10]: 1.36 nM
binding result [3]: no binding
IC50 of inhibition of pHer3 (MCF7 cells stimulated with rhNRG1-β1, ELISA) [8]: 1.04 nM
IC50 of pERK inhibition (MCF7 cells stimulated with rhNRG1-β1, MSD) [9]: 1.8 nM

B6: 588E10 (antibody, V domains shown)
VH: EVQLQQSGPKLVGPGESVKISCKGSGYTFTDYGMHWVKQSHAKRLEWIGVITIYDGHTNYNQNFKGKAALTVDKSSNTAYLELARMTSEDSAIYYCARGDYDLFWYLDVWGAGTTLTVSS
VL: DVVMTQTPLSLTVSLGDQASISCRSSQNIKHSDGNTYLEWYLQKPGQSPKLLIYKVSNRFSGVPDRFSGSGSGTDFTLKISRVEAEDLGVYFCFQGSHVPLTFGAGTKLELKR
notes: Purified mouse IgG from a hybridoma; also called 588E10-HC; 588E10-LC
binding result [1]: no binding
binding result [2]: no binding
% Receptor Internalization (T47D cells, FACS) [4]: 51%
IC50 (Her3/Avi/His10 receptor [5]): 4.9 nM
Kd [6]: 3.31 nM
IC50 (Her3/Avi/His10 receptor [7]): 2.92 nM
IC50 of pAKT inhibition (MCF7 cells stimulated with rhNRG1-β1, ELISA) [10]: 0.14 nM
binding result [3]: no binding
IC50 of inhibition of pHer3 (MCF7 cells stimulated with rhNRG1-β1, ELISA) [8]: 90 pM
IC50 of pERK inhibition (MCF7 cells stimulated with rhNRG1-β1, MSD) [9]: 1.72 nM

The next lines start with the values.

binding result [1]: no binding
binding result [2]: no binding
% Receptor Internalization (T47D cells, FACS) [4]: 59%
IC50 (Her3/Avi/His10 receptor [5]): 4.1 nM
Kd [6]: 3.2 nM
IC50 (Her3/Avi/His10 receptor [7]): 1.17 nM
IC50 of pAKT inhibition (MCF7 cells stimulated with rhNRG1-β1, ELISA) [10]: 2.05 nM
binding result [3]: no binding
IC50 of inhibition of pHer3 (MCF7 cells stimulated with rhNRG1-β1, ELISA) [8]: 0.66 nM
IC50 of pERK inhibition (MCF7 cells stimulated with rhNRG1-β1, MSD) [9]: 4.91 nM
B3: 588F41 (antibody, V domains shown)
VH: B4 VH with K67M
VL: DIVMTQSPASLSASVGETVTITCRTSENIYSYLAWFQQKQGNSPQLLVYNTKTLAEGVPSRFSGSGSGTQFSLKINSLQPEDFGNYYCQHHYDTPWTFGGGTKLEIKR
notes: Purified mouse IgG from a hybridoma; also called 588F41-HC; 588F41-LC

binding result [1]: no binding
binding result [2]: no binding
% Receptor Internalization (T47D cells, FACS) [4]: 41%
IC50 (Her3/Avi/His10 receptor [5]): 2.7 nM
Kd [6]: 2.4 nM
IC50 (Her3/Avi/His10 receptor [7]): 2.9 nM
IC50 of pAKT inhibition (MCF7 cells stimulated with rhNRG1-β1, ELISA) [10]: 9.47 nM
binding result [3]: no binding
IC50 of inhibition of pHer3 (MCF7 cells stimulated with rhNRG1-β1, ELISA) [8]: 6.99 nM
IC50 of pERK inhibition (MCF7 cells stimulated with rhNRG1-β1, MSD) [9]: 4.62 nM
B5: PO-1C9-C4 (antibody, V domains shown)
VH: QVQLQQPGSELVRPGASVKLSCKASGYTFTIFWIHWVKQRPGQGLEWIGNIYPGSGGTNYDEKFKSKATLTVDTFSSTAYMQLSSLTSEDSAVYYCTRWGTGKDYWGQGTTLTVSS
VL: DIVLTQSPAIMSASPGEKVTMTCRARSSVSSSYLHWYQQKPGSSPKLWIYSTSNLALGVPARFSGSGSGTSYSLTISSVEAEDAATYYCQQYDSSPFTFGTGTKLEIKR
notes: Purified mouse IgG from a hybridoma; also called PO-1C9-C4-HC; PO-1C9-C4-LC

binding result [1]: no binding
binding result [2]: no binding
% Receptor Internalization (T47D cells, FACS) [4]: 53%
IC50 (Her3/Avi/His10 receptor [5]): 3.6 nM
Kd [6]: 2.78 nM
IC50 (Her3/Avi/His10 receptor [7]): 2.08 nM
IC50 of pAKT inhibition (MCF7 cells stimulated with rhNRG1-β1, ELISA) [10]: 90 pM
binding result [3]: no binding
IC50 of inhibition of pHer3 (MCF7 cells stimulated with rhNRG1-β1, ELISA) [8]: 90 pM
IC50 of pERK inhibition (MCF7 cells stimulated with rhNRG1-β1, MSD) [9]: 1.44 nM
B7: 588E22 (antibody, V domains shown)
VH: B6 VH with E1D, Q6E, K10E, L81P, L116V
VL: B6 VL
notes: Purified mouse IgG from a hybridoma; also called 588E22-HC; 588E22-LC

binding result [1]: no binding
binding result [2]: no binding
% Receptor Internalization (T47D cells, FACS) [4]: 52%
IC50 (Her3/Avi/His10 receptor [5]): 2.3 nM
Kd [6]: 3.04 nM
IC50 (Her3/Avi/His10 receptor [7]): 1.44 nM
binding result [3]: no binding
IC50 of inhibition of pHer3 (MCF7 cells stimulated with rhNRG1-β1, ELISA) [8]: 70 pM
IC50 of pERK inhibition (MCF7 cells stimulated with rhNRG1-β1, MSD) [9]: 1.82 nM
B8: 588E14 (antibody, V domains shown)
VH: B6 VH with K10E, T28A, T115S, L116V
VL: B6 VL with V2I
notes: Purified mouse IgG from a hybridoma; also called 588E14-HC; 588E14-LC
